Results on 84 variants are retold here after the RNAGym collection of RNA variant scans (doi:10.1073/pnas.2313332121).

To fix the notation:
B1: TPR t1 (parent)
chain: GACCAAUCUGCCCUCAGAGCUCGAGAACAUCUUCGGAUGCAGAGGAGGCAGGCUUCGGUGGCGCGAUAGCGCCAACGUCCUCAACCUCCAAUGCAUCCCACCACAUGAUGAUGCCUGAAGAGCCUUGGUUUUUUG

The variants in this series derive from B1. Put plainly: polymerase ribozyme fitness, log enrichment relative to wild type (log ratio); higher = more active; in vitro selection for triplet polymerase activity. The gist of the method:
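One round of in vitro selection, in triplicate, was applied to PCR-built, transcribed mutant libraries of each subunit of a heterodimeric triplet polymerase ribozyme. The steps were annealing with a biotinylated primer, partner subunit and triplets, incubation frozen at −7 °C, gel excision of extended constructs, streptavidin-bead capture and RT-PCR. Fitness is the logarithm, base 2, of genotype enrichment over wild-type enrichment from inverse-variance-weighted replicate averages of Illumina-sequenced inputs and outputs, keeping genotypes with ≥10 input reads and ≥1 read per output.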
Regarding U14C U78A C80A, the “polymerase ribozyme fitness (log ratio)” value was -4.98.
Then C15U C76G G77C C123A, with -2.59.
Then C15U A29U A37U C62G C124G G135C, with -2.45; and C15G G57A, with -4.5; and U14C C80U, with -2.7.
Under U14G A50U C56U G93U U112A stands -3.22.
Take C15A A29G C72A U81A U87C G120C: the “polymerase ribozyme fitness (log ratio)” value was -2.96.
Then C15G C56U U87A C115U U131C, with -0.823; and C15U A50U G63C C89U, with -3.78; and C13U G39U G61C, with -1.9.
Under C15G C85U stands -3.82; under C15G C98U, -4.22.
Under U14A U125A stands -2.3; under U14A U125G, -3.25; under C15G G39U G48A A68U U112G, -7.39.
Regarding C15G C115A, the “polymerase ribozyme fitness (log ratio)” value is -2.88.
With C13U G19U G52U C64U, the “polymerase ribozyme fitness (log ratio)” value was -3.78.
Then U14G G39A C85U G117A, with -3.84; and U14A G63A U125A, with -2.94; and C15A A68G C97A A103G, with -6.8.
As for C15G C34A, the “polymerase ribozyme fitness (log ratio)” value was -5.11.
Under C13U C98A C115U stands -5.17; under U14G C15A, -3.45.
Regarding U14A A46C U112A A119G G122C, the “polymerase ribozyme fitness (log ratio)” value was -0.328.
Then C13U U59A U81C, with -0.938.
Under C15G A18U stands -3.36.
Then U14A A18U C31G U38G G107A C124A, with -6.73; and C13U U55G C79U, with 0.324.
As for C13U U30C C56U A121C U130G, the “polymerase ribozyme fitness (log ratio)” value is -1.57.
Under C15A A111G stands -2.08; under C13U C123U, 1.41; under C15G G42A C88G, -4.44.
Then C13U U55A G61C A84U C85G A95G U125G G128U, with -3.92.
For U14A C70U C104U, the “polymerase ribozyme fitness (log ratio)” value is -2.52.
Under C15A U78A stands -2.6; under U14A G45A G110U U112C, -4.2.
Under C15U A41U stands -2.32; under C15G A84U G120U U129G, -5.84.
Then C15A C88U, with -2.17; and C13U C73G A83G, with -1.22; and U14G G47U C101G G120U, with -4.67.
As for C13U U92C C104U, the “polymerase ribozyme fitness (log ratio)” value is -1.33.
For the variant U14A C49U G52U C76A, the “polymerase ribozyme fitness (log ratio)” value was -4.51.
Then U14G A46G G71C G120A, with -0.69.
Then C15G C114U, with -4.3; and C15G G60C U130C, with -1.49.
Then C13U G36A C88U, with -0.556; and C15G A118U U131A, with -1.47.
As to U14G U129G, the “polymerase ribozyme fitness (log ratio)” value is -3.21.
Then C15A C20A G107A A121G, with -5.21.
Then U14C A43G, with -3.2.
Under U14A C70G G77C U112C A119G U131G stands -3.76.
In the case of C15G G61C A119G, the “polymerase ribozyme fitness (log ratio)” value is -0.591.
Then C13U C62G U130C G135U, with -1.67; and C15A A46U G117U C124U U132C, with -0.364.
As for C15U A50U C76U U78A, the “polymerase ribozyme fitness (log ratio)” value is -3.61.
For C15G U106G G117C, the “polymerase ribozyme fitness (log ratio)” value stood at 0.15.
Under C15A G52U U55G stands -1.52; under U14C G42U G44A G61U, -2.82; under C15G U32C A43G G45U C89G, -4.49.
As to U14A A18C G113A C123U, the “polymerase ribozyme fitness (log ratio)” value is -4.67.
Under C15A A74G U81G U112C stands -3.53.
Under U14G C20G G44U G117C stands -6.5; under C13U C28G C53G U78G C88A U106A G110A A111G, -1.49.
Then C13U G39A G58U C79G C97U, with -2.64.
With C13U G35A C86G, the “polymerase ribozyme fitness (log ratio)” value is -3.98.
Then C15U A37G G71A C80U A118U U133A, with -4.3; and C15G A50U U109A, with -6.25; and C13U G39A A68C A91G C123A, with -7.34.
Consider U14G G51A G113A G120A A121G, for which the “polymerase ribozyme fitness (log ratio)” value is -2.87.
As to C13U G63A C64U, the “polymerase ribozyme fitness (log ratio)” value was -4.34.
Under C13U C56G U59G A95C stands -2.3.
Then C15G A37C A46U C53A C56G, with -4.78; and C13U G19U G52U, with -2.98; and C15U A41C G48A C53U C56U C124U, with -1.63.
C15A A37U: the “polymerase ribozyme fitness (log ratio)” value was -2.28.
As for C15U A16U C76A C115A C123A U130C, the “polymerase ribozyme fitness (log ratio)” value was -5.56.
Then C15A C28G G36A C40U G110C U112C C115A G117U G120A, with -3.11.
Then C15U A37U C62U, with -1.85; and C15A G44A G45U G48U C62U C73U U78G, with -5.47.
Then U14A C49U G52U A121U U125A, with -1.22.
Consider C15U A95U, for which the “polymerase ribozyme fitness (log ratio)” value is -2.49.
For the variant C15G G117C, the “polymerase ribozyme fitness (log ratio)” value was -3.41.
Then C15A G61U C89U G122U C124G G135A, with -0.759.
